For one molecule, minimum concentration of fetuin that inhibits the agglutination of a 4% horse erythrocyte suspension by 4 HU lectin results are on record in PMC6316659.

Test [1] addresses rD4BPL2 (recombinant Bryopsis plumosa lectin 2, tetrameric tandem repeat construct) (Bryopsis plumosa).
Test [2] deals with native BPL2 (Bryopsis plumosa mannose-binding lectin 2) (Bryopsis plumosa).

B1: bovine serum fetuin (natural protein)
chain: IPLDPVAGYKEPACDDPDTEQAALAAVDYINKHLPRGYKHTLNQIDSVKVWPRRPTGEVYDIEIDTLETTCHVLDPTPLANCSVRQQTQHAVEGDCDIHVLKQDGQFSVLFTKCDSSPDSAEDVRKLCPDCPLLAPLNDSRVVHAVEVALATFNAESNGSYLQLVEISRAQFVPLPVSVSVEFAVAATDCIAKEVVDPTKCNLLAEKQYGFCKGSVIQKALGGEDVRVTCTLFQTQPVIPQPQPDGAEAEAPSAVPDAAGPTPSAAGPPVASVVVGPSVVAVPLPLHRAHYDLRHTFSGVASVESSSGEAFHVGKTPIVGQPSIPGGPVRLCPGRIRYFKI
With B1, the minimum concentration of fetuin that inhibits the agglutination of a 4% horse erythrocyte suspension by 4 HU lectin came to 12.2 µg/mL in test [1] and 195 µg/mL in test [2].
